According to article PMC8364239 (The Plant Cell, 2021):
Residue numbers refer to the chain shown, from its start. Names and notes keep the numbering of the source.

T1: His6-tagged SEC15B (Arabidopsis thaliana, UniProt F4JHH5 1-787)
T1 sequence: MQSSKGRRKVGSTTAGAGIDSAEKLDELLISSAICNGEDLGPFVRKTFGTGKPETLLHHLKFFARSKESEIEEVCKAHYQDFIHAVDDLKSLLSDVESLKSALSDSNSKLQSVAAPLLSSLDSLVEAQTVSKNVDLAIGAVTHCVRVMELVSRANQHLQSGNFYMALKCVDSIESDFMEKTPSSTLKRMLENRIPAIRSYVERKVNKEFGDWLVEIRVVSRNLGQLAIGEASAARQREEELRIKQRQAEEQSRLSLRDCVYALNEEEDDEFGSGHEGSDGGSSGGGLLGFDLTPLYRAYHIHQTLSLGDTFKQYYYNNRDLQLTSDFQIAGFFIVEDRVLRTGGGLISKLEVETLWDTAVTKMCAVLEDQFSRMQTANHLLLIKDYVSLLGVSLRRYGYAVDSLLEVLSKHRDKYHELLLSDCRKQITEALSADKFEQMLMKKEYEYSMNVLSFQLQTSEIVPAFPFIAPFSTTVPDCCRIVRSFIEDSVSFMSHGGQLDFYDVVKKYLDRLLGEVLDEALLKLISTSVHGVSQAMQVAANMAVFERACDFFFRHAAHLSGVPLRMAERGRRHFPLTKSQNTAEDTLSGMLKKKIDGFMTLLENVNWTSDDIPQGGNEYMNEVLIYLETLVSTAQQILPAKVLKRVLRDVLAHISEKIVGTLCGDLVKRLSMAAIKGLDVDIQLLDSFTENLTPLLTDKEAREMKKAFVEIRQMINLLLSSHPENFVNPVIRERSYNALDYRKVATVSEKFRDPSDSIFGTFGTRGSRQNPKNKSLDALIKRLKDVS

T2: His6-tagged SEC5B (Arabidopsis thaliana, UniProt F4HWE6 1-1090)
T2 sequence: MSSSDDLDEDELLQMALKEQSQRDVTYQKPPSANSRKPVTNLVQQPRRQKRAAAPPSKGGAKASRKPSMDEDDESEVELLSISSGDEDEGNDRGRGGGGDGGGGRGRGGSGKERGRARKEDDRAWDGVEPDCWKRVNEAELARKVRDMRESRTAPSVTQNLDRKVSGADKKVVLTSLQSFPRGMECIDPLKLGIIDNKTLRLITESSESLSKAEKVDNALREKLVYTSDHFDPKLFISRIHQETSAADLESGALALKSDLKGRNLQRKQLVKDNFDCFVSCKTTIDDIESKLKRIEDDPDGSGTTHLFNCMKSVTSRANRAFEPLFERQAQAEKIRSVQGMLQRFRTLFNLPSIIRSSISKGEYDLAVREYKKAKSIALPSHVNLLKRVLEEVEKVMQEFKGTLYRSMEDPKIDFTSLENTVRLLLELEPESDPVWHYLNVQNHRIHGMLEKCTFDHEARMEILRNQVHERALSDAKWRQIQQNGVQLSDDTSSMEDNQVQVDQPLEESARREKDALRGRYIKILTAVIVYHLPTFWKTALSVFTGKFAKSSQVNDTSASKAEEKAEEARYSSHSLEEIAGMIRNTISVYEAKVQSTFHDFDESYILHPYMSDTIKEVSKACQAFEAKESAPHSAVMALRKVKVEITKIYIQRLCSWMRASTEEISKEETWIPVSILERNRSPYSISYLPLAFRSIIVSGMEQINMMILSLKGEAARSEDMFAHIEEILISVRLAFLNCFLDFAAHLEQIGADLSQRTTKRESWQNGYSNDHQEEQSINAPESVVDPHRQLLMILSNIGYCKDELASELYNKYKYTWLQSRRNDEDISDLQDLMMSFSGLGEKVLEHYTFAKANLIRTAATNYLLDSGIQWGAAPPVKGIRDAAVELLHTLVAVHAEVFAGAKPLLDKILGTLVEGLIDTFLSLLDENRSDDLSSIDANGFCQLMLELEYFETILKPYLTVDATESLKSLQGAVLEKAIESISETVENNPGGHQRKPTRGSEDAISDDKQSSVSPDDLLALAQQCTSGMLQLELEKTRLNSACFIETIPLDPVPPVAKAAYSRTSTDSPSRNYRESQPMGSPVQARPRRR

B1: GST-tagged myosin XIK GTD (wild type) (domain or fragment)
chain: ISPTSRTMATRSKTMLLPRTPENGNYLNGGTKTTPDMTLAVREPESEEKPQKHLNEKQQENQDLLVKCISQNLGYNGDKPVAACVIYKCLLHWRSFEVERTSVFDRIIQTIATAIEVPDNNEVLAYWLSNSATLLLLLQRTLKATGAASLTPQRRRTTSASLFGRMSQGLRGSPQSAGLSFLNRQGLTKLDDLRQVEAKYPALLFKQQLTAFLEKIYGMIRDNLKKEISPLLGLCIQAPRTSRASLVKGRAQANAVAQQALIAHWQSIRKSLNSYLNLMKANNAPPFLVRKVFTQIFSFINVQLFNSLLLRRECCSFSNGEYVKAGLAELEQWCIEATDEYAGSAWDELRHIRQAVGFLVIHQKPKKTLDEITRELCPVLSIQQLYRISTMYWDDKYGTHSVSSDVIANMRVMMTEDSNNAVSSSFLLDDDSSIPFTVEDISKSMQQVDVNDIEPPQLIRENSGFGFLLTRKEGSTS
B2: GST-XIK GTD K1103A (domain or fragment)
chain: B1 chain with K49A

Tests used:
[1] = biological target: T1, His6-tagged SEC15B; assay: pull-down
[2] = biological target: T2, His6-tagged SEC5B; assay: pull-down

| Binder | binding result [1] | binding result [2] |
| --- | --- | --- |
| B1 | binds | binds |
| B2 | – | binds |
